Experiment [1] addresses T1, recombinant alipidated human ApoE3 (human, UniProt P02649 19-317).
T1 construct: mature; full length recombinant protein made in E. coli or bought
As to the kind of experiment: direct ELISA on coated recombinant alipidated ApoE (0.5 ug/ml). The method, then: (§1) ELISA dose response curves were generated for several anti-ApoE antibodies. Briefly, plates were coated overnight with full length recombinant alipidated ApoE2, ApoE3, or ApoE4 (0.5 μg/ml). The following days, plates were washed, blocked and then incubated with an anti-ApoE antibody. A goat, anti-mouse IgG-HRP antibody was used for secondary detection. Recombinant alipidated ApoE was either expressed solubly in E. coli and then purified, or purchased from a commercial supplier.

In experiment [2] the target is T2, recombinant alipidated human ApoE4 (human, UniProt P02649 19-317).
T2 construct: mature; full length recombinant protein made in E. coli or bought; biotinylated for SPR; position 112 is counted on the mature protein, not on the precursor entry; also called recApoE; non-lipidated ApoE4
The experiment is described as above. The method, then: as §1
Target sequence in this assay (P02649 19-317 C130R): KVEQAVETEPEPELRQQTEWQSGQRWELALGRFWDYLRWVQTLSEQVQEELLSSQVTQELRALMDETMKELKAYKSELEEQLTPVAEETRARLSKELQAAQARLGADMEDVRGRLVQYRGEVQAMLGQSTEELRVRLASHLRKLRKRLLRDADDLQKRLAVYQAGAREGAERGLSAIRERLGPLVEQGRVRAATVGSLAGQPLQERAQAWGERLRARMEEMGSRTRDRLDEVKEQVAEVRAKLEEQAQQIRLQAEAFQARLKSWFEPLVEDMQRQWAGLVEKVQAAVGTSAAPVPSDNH

Experiment [3] has as its target T2, recombinant alipidated human ApoE4. As to the kind of experiment: SPR (Biacore T200), biotinylated ApoE4 captured on anti-biotin mAb chip, antibody injected, 1:1 fit. The method, then: The affinity of several anti-ApoE antibodies for ApoE4 was determined by surface plasmon resonance using a BIAcore T200. Anti-biotin monoclonal mouse antibody was immobilized on a Biacore Series S CM5 sensor chip. Biotinylated recombinant alipidated ApoE4 was then captured on to the chip. Serial dilutions of each antibody were injected at a flow rate of 30 μl/min. Each sample was analyzed, for example, with 3-minute association and 10-minute dissociation. After each injection the chip was regenerated using 3 M MgCl₂ or another appropriate buffer. Binding response was corrected by subtracting the response units (RUs) from a flow cell capturing an irrelevant IgG at similar density. A 1:1 Languir model of simultaneous fitting of Kₒₙ and Koff was used for kinetics analysis. Recombinant alipidated ApoE4 was either expressed in soluble form in E. coli and then purified, or purchased from a commercial supplier.

Experiment [4] addresses T3, ApoE4 amino acids 24-164, expressed on yeast (human, UniProt P02649 42-182).
T3 construct: with myc tag, on yeast cells; range counts on the mature protein; also called helix1 + 2 + 3 + 4
T3 chain: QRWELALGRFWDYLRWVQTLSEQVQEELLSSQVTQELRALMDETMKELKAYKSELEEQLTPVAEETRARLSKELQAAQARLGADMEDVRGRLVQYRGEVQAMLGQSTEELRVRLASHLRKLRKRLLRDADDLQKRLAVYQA
As to the kind of experiment: yeast display of myc-tagged ApoE4 fragment, antibody staining. As to the method: (§2) Epitope binding of various anti-ApoE antibodies was evaluated multiple ways. Different sequences of human ApoE were expressed on the surface of yeast by yeast display using different plasmids. Different anti-ApoE antibodies were then assessed to determine binding to the different ApoE sequences by immunofluorescence of the yeast cell surface (Table 4). Because none of the anti-ApoE antibodies tested here recognize murine ApoE, the epitope was further narrowed down by comparison of the murine and human ApoE sequences as shown in Tables 4 and 5. DNA constructs containing different regions of ApoE4 with myc tag were transformed into yeast cells. Yeast cells were incubated with HJ15x to detect binding or anti-myc antibody to detect expression.

The target in experiment [5] is T4, ApoE4 amino acids 1-164, expressed on yeast (human, UniProt P02649 19-182).
T4 construct: with myc tag, on yeast cells; range counts on the mature protein; also called up to helix 4; not shown: myc tag and yeast surface-display partner
T4 chain: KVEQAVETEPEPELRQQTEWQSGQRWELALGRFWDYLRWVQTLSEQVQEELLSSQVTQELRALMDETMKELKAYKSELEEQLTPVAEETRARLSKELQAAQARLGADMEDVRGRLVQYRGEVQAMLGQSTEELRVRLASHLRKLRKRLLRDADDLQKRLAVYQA
The description is as above. The method, then: as §2

For experiment [6], the target named is T5, ApoE4 amino acids 54-164, expressed on yeast (human, UniProt P02649 72-182).
T5 construct: with myc tag, on yeast cells; expression in yeast printed as Low; range counts on the mature protein; also called helix2 + 3 + 4
T5 chain: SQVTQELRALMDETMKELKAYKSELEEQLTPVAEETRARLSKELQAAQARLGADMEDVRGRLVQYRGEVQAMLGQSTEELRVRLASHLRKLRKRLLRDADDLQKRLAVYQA
The description is as above. The method, then: as §2

The target in experiment [7] is T6, ApoE4 amino acids 1-210, expressed on yeast (human, UniProt P02649 19-228).
T6 construct: with myc tag, on yeast cells; range counts on the mature protein; also called N terminal domain; not shown: myc tag and yeast surface-display partner
T6 chain: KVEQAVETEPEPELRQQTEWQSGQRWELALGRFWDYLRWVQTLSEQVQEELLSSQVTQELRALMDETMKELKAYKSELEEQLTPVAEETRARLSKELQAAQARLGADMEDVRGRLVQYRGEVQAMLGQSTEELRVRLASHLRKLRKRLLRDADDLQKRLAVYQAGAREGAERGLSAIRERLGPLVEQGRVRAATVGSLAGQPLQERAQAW
The experiment is described as above. The method, then: as §2

Experiment [8] addresses T7, recombinant alipidated human ApoE2 (human, UniProt P02649 19-317).
T7 construct: mature; full length recombinant protein made in E. coli or bought
Kind of experiment: direct ELISA on coated recombinant alipidated ApoE (0.5 ug/ml). As to the method: as §1
A general note: In an ELISA, binding on a coated surface is turned into a signal by an enzyme label.

For another experiment, the target named is T8, murine ApoE (mouse, UniProt P08226 19-311).
T8 sequence (looked up): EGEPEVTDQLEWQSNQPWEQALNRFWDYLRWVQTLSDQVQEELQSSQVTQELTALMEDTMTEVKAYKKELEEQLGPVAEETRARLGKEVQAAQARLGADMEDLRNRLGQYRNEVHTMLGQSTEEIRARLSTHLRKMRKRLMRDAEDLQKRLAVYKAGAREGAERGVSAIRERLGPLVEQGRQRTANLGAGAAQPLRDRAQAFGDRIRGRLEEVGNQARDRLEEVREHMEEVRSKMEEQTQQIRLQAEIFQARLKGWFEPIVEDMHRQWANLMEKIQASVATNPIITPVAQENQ
Kind of experiment: Western blot of mouse brain lysates. An excerpt:
Brain lysates from apoE KO mice or mice expressing human apoE3, human apoE4 or murine apoE were immunoblotted with HJ151, HJ152, HJ153, and HJ154. A commercial apoE antibody GA-50 was used as a positive control.

By EC50 is commonly meant the concentration that produces a half-maximal response. For orientation: Kd means the constant that tells how readily two partners part at equilibrium. The term koff denotes the rate constant with which the complex falls apart. A word on the kon: it is the second-order rate constant of association.

T1 sequence (P02649 19-317): as the sequence (P02649 19-317 C130R) above, with R112C counted along it

B1: HJ159 (antibody, V domains shown)
VH: QVQLQQSGPDLVKPGASVKISCKASGYTFIDYYINWAKQRPGQGLEWIGWIFPGSGSTYYNEKFKGKATLTVDKSSSTAYMFLSSLTSEDSAVFFCARYYGSSPFAYWGQGTLVTVSA
VL: DVLMTQTPLSLPVSLGDQASISCRSSQNIVYSNGNTYLEWYLQKPGQSPKLLIYKVSNRFSGVPDRFSGSGSGTYFTLKISRVEAEDLGIYYCFQGSHVPYTFGGGTKLEIKR
notes: murine monoclonal antibody from hybridoma
For B1, the EC50 in [1] was 1.9 nM; in experiment [2], 0.32 nM. For the same molecule, the Kd in [3] was 391 nM. The off-rate (koff) in experiment [3] came out at 0.0074 s⁻¹. The on-rate (kon) in experiment [3] turned out to be 18900 M⁻¹ s⁻¹. Besides, the binding result in experiment [4], in experiment [5], in experiment [6] and in [7] was “binds” throughout.

B2: HJ1518 (antibody, V domains shown)
VH: QVQLQQSGPELVKPGASVKISCKASGYTFSDYYINWVKQRPGQGLEWIGWIFPGSGSSYYNEKFKGKATLTVDKSSRTAYMLLSSLTSEDSAVYFCARYYGSSPFAYWGQGTLVTVST
VL: DVLMTQSPLSLPVSLGDQASISCRSSQSIVHRNGNTYLEWYLQKPGQSPKLLIYKVSNRFSGVPDRFSGSGSGTDFTLKISRVEAEDLGVYYCFQGSHVPYTFGGGTKLEIRR
notes: as for B1
Consider B2, for which the concentration giving a half-maximal response (EC50) in experiment [1] turned out to be 0.258 nM; in [2], 0.06 nM. Besides, in [3], the Kd is 206 nM. The koff in experiment [3] came out at 0.00946 s⁻¹. In [3], the kon worked out at 45900 M⁻¹ s⁻¹. The binding result in [4], in experiment [5], in [6] and in experiment [7] was “binds” throughout.

B3: HJ1513 (antibody, V domains shown)
VH: QIQLQQSGPELVKPGASVKISCKASGYTFTDYYINWVRQRPGQGLEWIGWIYPESFNTYYNEKFKGKATLTVDTSSNTAYMQLSSLTSEDSAVYFCARYYVSSPFAYWGQGTLVTVSA
VL: DVLMTQTPLSLPVSLGDQASISCRSSQNIIHSNGNTYLEWFLQKPGQSPKLLIYKVSNRFSGVPDRFSGSGSGTDFTLKISRVEAEDLGVYYCFQGSHVPYTFGGGTKLEIKR
notes: as for B1
For B3, the half-maximal effective concentration (EC50) in experiment [1] was 1.26 nM; in experiment [8], ~100 nM; in experiment [2] it was 0.46 nM. In [3], the Kd stood at 135 nM. Further, the koff in experiment [3] turned out to be 0.000858 s⁻¹. Also, in [3], the kon came out at 6360 M⁻¹ s⁻¹. Further, the binding result in experiment [4], in [5], in experiment [6] and in experiment [7] was “binds” in each case.

B4: HJ158 (antibody, V domains shown)
VH: EVQLMESGGDLVKPGGSLELSCTVSGFTFNNYAMSWIRQTPEKRLEWVATISDGGTNTYFPDNVKGRFTISRDNAKSNLYLQMSHLQSEDTAMYYCAREGRGTWFAYWGQGTLVTVSA
VL: DVVMTQTPLSLPVSLGDQASISCRSSQSLVHINGNTYLHWSLQKPGQSPKLLIYKVSNRFSGVPDRFSGSGSGTDFTLKISRVEAEDLGIYFCSQNTHLPLTFGAGTKLELKR
notes: as for B1
As to B4, the half-maximal effective concentration (EC50) was 0.09 nM in experiment [1], 0.07 nM in experiment [8] and 0.06 nM in experiment [2].

B5: HJ152 (antibody, V domains shown)
VH: EVKLEESGGGLVQPGGSMKLSCAASGFSFSDAWMDWVRQSPEKGLEWVAEIRNKADNHATFYAESVKGRFTISRDDSKSSVYLQMNSLRAEDSGIYYCLLWDYWGQGTTLTVSS
VL: DIVMSQSPSSLAVSAGEKVTMSCKSSQSLLNSRTRKHFLAWYQQKPGQSPKVLIYWASSRESGVPDRFTGSGSGTDFTLTISSVQAEDLAVYYCKQSCNLPWTFGGGTKLEIKR
notes: murine monoclonal antibody from hybridoma; also called HJ152B (biotinylated)
Regarding B5, the binding result in the experiment with murine ApoE is reported as “no binding”; in [4] it was “binds”; in [5] it was “binds”; in experiment [6], “binds”; in experiment [7], “binds”. Further, the EC50 in [1] was 0.13 nM; in [2], 0.35 nM. Further, in experiment [3], the dissociation constant (Kd) was 249 nM. Besides, in [3], the koff came to 0.00116 s⁻¹. For the same molecule, the on-rate constant (kon) in experiment [3] is 4660 M⁻¹ s⁻¹.

B6: HJ1514 (antibody, V domains shown)
VH: EVNLEESGGGLVQPGGSMKLSCAASGFTFSDAWMDWVRQSPEKGLEWVAEIRNKADNHATYYAESVKGRFTISRNDSKSSVYLQMNSLRTEDTGIYYCVLWDYWGQGTTLTVSS
VL: DIVMSQSPSSLAVSAGEKVTMTCKSSQSLLNSRTRKNFLTWYRQKPGQSPKPLIYWASSRESGVPDRFAGSGSGTDFTLTISSVQAEDLAVYYCKQSYNLPWTFGGGTKLEIKR
notes: as for B1
B6: the concentration giving a half-maximal response (EC50) in experiment [1] was 0.23 nM; in experiment [8], ~100 nM; in experiment [2], 0.04 nM. In addition, the dissociation constant Kd in experiment [3] was < 0.781 nM. In addition, the koff in [3] is < 1e-05 s⁻¹. Besides, in experiment [3], the kon was determined as 12800 M⁻¹ s⁻¹. Moreover, the binding result in experiment [4], in [5], in experiment [6] and in [7] was “binds” throughout.

B7: HJ1531 (antibody, V domains shown)
VH: EVQFVESGGGLVQPKGSLKLSCAASGFSFNIYAMNWVRQAPGKGLEWVARIRSKSNDYATFYADSVKDRFTISRDDSESMLYLQMNNLKIEDTAMYYCVSPYDGALAYWGQGTSVTVSS
VL: DIQMNQSPSSLFASLGDTITITCHASQNINVWLSWYQQKPGNIPKLLIYKASNLHTGVSSRFSGSGSGTDFTLTINNLQPEDIATYYCQQGQSYPLTFGAGTKLELKR
notes: as for B1
For the molecule B7, the half-maximal effective concentration (EC50) in experiment [1] came to 0.05 nM; in [8], 0.05 nM; in experiment [2], 0.04 nM.

B8: HJ1536 (antibody, V domains shown)
VH: EVQFVESGGGLVQPKGSLKLSCEVSGFSFNTYAMNWVRQAPGKGLEWVARIRNKTNNYATFYADSVKDRFTISRDDSKNTLYLQMNNLKAEDTAMYFCASPYDGSFAYWGQGTLVTVSA
VL: DIQMNQSPSSLSASLGDTITITCHASQNINIWLSWYQQKPGNIPKLLIYKASNLHTGVPSRFSGSGSGTGFTLTISSLQPEDIATYYCQQGHSYPLTFGGGTKLEIKR
notes: as for B1
Regarding B8, the EC50 in [1] was determined as 0.1 nM; in experiment [8], 0.09 nM; in experiment [2] it was 0.05 nM.

The record behind these values is patent US20250145697A1 (WASHINGTON UNIVERSITY, published 2025).
